# Measurements: patent US9675707B2, “Anti-TAT226 antibodies and immunoconjugates” (GENENTECH, INC., priority 2006, dated 2017)
# Where a SMILES comes first, the peptide text is derived from it. [ ]: non-standard residue; d: D form. The star is where a group is joined. Dolaproine = CO[C@@H]([C@@H]1CCCN1)[C@@H](C)C(=O)O; Dil = CC[C@H](C)[C@H](NC)[C@@H](CC(=O)O)OC; X1 = C[C@@H](N*)[C@@H](O)c1ccccc1; NMeV = CN[C@H](C(=O)O)C(C)C
# Key:
# OVCAR3 cells = experiment: OVCAR3 in vitro cell killing assay (CellTiter-Glo); type: cell-based, human; conditions: 5 days of incubation
# Procedure: YWO.49.H2 and YWO.49.H6 ADCs were tested for the ability to inhibit proliferation of OVCAR3 cells. OVCAR3 cells were seeded in 96-well plates in RPMI with 20% FBS. Anti-MUC16/CA25 antibody conjugated to MC-vc-PAB-MMAE was used as a positive control. MUC16/CA25 is a known ovarian cancer antigen. See, e.g., Yin et al. (2001) J. Biol. Chem. 276:27371-27375. Anti-IL-8 antibody conjugated to MC-vc-PAB-MMAE was used as a negative control. After 5 days of incubation, cell viability was measured using the CellTiter-Glo™ Luminescent Cell Viability Assay (Promega, Madison, Wis.) according to the manufacturer's instructions. The scale on the y-axis of FIG. 17 indicates the relative light units, or “RLUs,” from luciferase luminescence, which is a measure of cell viability.
# HCT116#9-4 cells = experiment: In vitro cell killing assay using HCT116 transfected cells (CellTiter-Glo); type: cell-based, human; conditions: 3 days of incubation
# Procedure: (§1) YWO.49.H2 and YWO.49.H6 ADCs were tested for the ability to inhibit proliferation of HCT116 cells, a colon cancer cell line, which had been stably transfected with nucleic acid encoding human TAT226. Untransfected HCT116 cells are normally about 5-6 fold less sensitive to free (unconjugated) MMAE than OVCAR3 cells.
# Briefly, HCT116 cells were transfected as follows. Nucleic acid encoding epitope-tagged human TAT226 was constructed in the mammalian expression vector pcDNA3.1 (Invitrogen, Carlsbad, Calif.). The epitope tag consisted of amino acids 1-53 of the herpes simplex virus type 1 glycoprotein D (the “gD” tag), which replaced the signal sequence from amino acids 1-22 at the N-terminus of human TAT226. The recombinant vector was transfected into HCT116 cells using Lipofectamine200 (Invitrogen) according to the manufacturer's protocol. Transfected HCT116 cells were cultured in McCoy's 5a medium with 10% FBS and 0.4 mg/ml G418. Cells were stained using anti-gD antibodies and sorted by FACS to select for individual clones expressing recombinant gD:human TAT226 fusion protein. […]
# To perform the cell killing assay, HCT116#9-4 cells were seeded in 96-well plates. […] After 3 days of incubation, cell viability was measured using the CellTiter-Glo™ Luminescent Cell Viability Assay (Promega, Madison, Wis.) according to the manufacturer's instructions.
# [1] = system: Untransfected HCT116 cells; experiment: Sensitivity of untransfected HCT116 cells to free MMAE; type: cell-based, human; conditions: untransfected HCT116 cells versus OVCAR3 cells
# Procedure: as §1
# TAT226-His = molecular target: T1, TAT226-His (Homo sapiens, UniProt Q8N2G4); experiment: Binding affinity for recombinant antigen by surface plasmon resonance (BIACORE 3000); conditions: immobilized antibody, TAT226-His 0.7 nM to 500 nM, 25° C., one-to-one Langmuir model; for kon/10^5: association rate; for koff/10^−4: dissociation rate
# T1 construct: polyhistidine (C); made in house
# T1 sequence (Q8N2G4 21-115): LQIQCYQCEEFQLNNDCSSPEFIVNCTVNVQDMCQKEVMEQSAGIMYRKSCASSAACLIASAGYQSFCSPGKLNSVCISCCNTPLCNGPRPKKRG
# Procedure: The binding affinity of YWO.49, YWO.49.B7, YWO.49.C9, YWO.49.H2, and YWO.49.H6 for recombinant antigen was determined by surface plasmon resonance measurement using a BIACORE® 3000 system (Biacore, Inc., Piscataway, N.J.). Briefly, carboxymethylated dextran biosensor chips (CMS, Biacore Inc.) were activated with N-ethyl-N′-(3-dimethylaminopropyl)-carbodiimide hydrochloride (EDC) and N-hydroxysuccinimide (NHS) according to the supplier's instructions. Anti-TAT226 antibody was diluted to 5 ug/ml with 10 mM sodium acetate, pH 4.8, before injection at a flow rate of 5 ul/minute to achieve approximately 500 response units (RU) of coupled antibody. Next, 1M ethanolamine was injected to block unreacted groups. For kinetics measurements, two-fold serial dilutions of TAT226-His (0.7 nM to 500 nM) were injected in PBS with 0.05% Tween 20 at 25° C. at a flow rate of 25 μl/min. Association rates (kon) and dissociation rates (koff) were calculated using a simple one-to-one Langmuir binding model (BIAevaluation Software version 3.2). The equilibrium dissociation constant (Kd) was calculated as the ratio koff/kon.
# [2] = molecular target: T2, TAT226 expressed on the surface of OVCAR3 (Homo sapiens, UniProt Q8N2G4); experiment: FACS binding to TAT226 expressed on the surface of OVCAR3 cells; conditions: 5 μg/ml primary antibody, 1 hour on ice
# T2 construct: TAT226 expressed on the surface of OVCAR3, a human ovarian cancer cell line; endogenous in cells; host or cells: OVCAR3
# T2 sequence (Q8N2G4 21-117): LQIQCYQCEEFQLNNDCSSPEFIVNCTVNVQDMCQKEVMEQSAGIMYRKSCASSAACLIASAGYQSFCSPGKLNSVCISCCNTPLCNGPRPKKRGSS
# Procedure: The ability of anti-TAT226 antibodies to bind to TAT226 expressed on the surface of OVCAR3, a human ovarian cancer cell line, was examined. Fluorescence-activated cell sorting (FACS) was performed on OVCAR3 cells in the absence and in the presence of YWO.49, YWO.49.B7, YWO.49.C9, YWO.49.H2, or YWO.49.H6. Briefly, detached cells were incubated with 5 μg/ml primary antibody for 1 hour on ice, washed, and incubated with secondary antibody (anti-human IgG conjugated to phycoerythrin) for 30 minutes on ice. FACS was performed using a FACScan™ flow cytometer (BD Biosciences, San Jose, Calif.).
# The peaks on the left side of each graph represent “background” binding, i.e., binding of secondary antibody only. The peaks on the right side of each graph represent binding of the indicated anti-TAT226 antibody.
Molecule,kon/10^5 (TAT226-His),koff/10^−4 (TAT226-His),IC50 (OVCAR3 cells),IC50 (HCT116#9-4 cells),fold less sensitive than OVCAR3 cells [1],binding to OVCAR3 cells by FACS [2]
"CC[C@H](C)[C@@H]([C@@H](CC(=O)N1CCC[C@H]1[C@H](OC)[C@@H](C)C(=O)N[C@H](C)[C@@H](O)c1ccccc1)OC)N(C)C(=O)[C@@H](NC(=O)[C@@H](NC)C(C)C)C(C)C [free MMAE, mono-methyl auristatin E] (H-[NMeV]V[Dil][Dolaproine]-X1)",,,~100 pM,~900 pM,5-6 fold,
"YWO.49.B7: affinity matured anti-TAT226 antibody derived from YWO.49, reformatted as full-length IgG (antibody, V domains shown) VH: EVQLVESGGGLVQPGGSLRLSCAASGFTITNYGIHWVRQAPGKGLEWVGRIYPDSGATYYADSVKGRFTISADTSKNTAYLQMNSLRAEDTAVYYCARKLWVSLAAMDYWGQGTLVTVSS VL: DIQMTQSPSSLSASVGDRVTITCRASQDVSTAVAWYQQKPGKAPKLLIYSASFLYSGVPSRFSGSGSGTDFTLTISSLQPEDFATYYCQRSVFTPPAFGQGTKVEIKR",0.27,<0.05,,,,did not bind significantly
"YWO.49.C9: affinity matured anti-TAT226 antibody derived from YWO.49, reformatted as full-length IgG (antibody, V domains shown) VH: EVQLVESGGGLVQPGGSLRLSCAASGFTITNYGIHWVRQAPGKGLEWVGRIYPDSGATYYADSVKGRFTISADTSKNTAYLQMNSLRAEDTAVYYCARKLWVTLASMDYWGQGTLVTVSS VL: DIQMTQSPSSLSASVGDRVTITCRASQDVSTAVAWYQQKPGKAPKLLIYSASFLYSGVPSRFSGSGSGTDFTLTISSLQPEDFATYYCQKSYNTPPTFGQGTKVEIKR",1.53,<0.05,,,,comparable to that observed for YWO.49.H2 and YWO.H6

# The next lines start with results.
kon/10^5 (TAT226-His),koff/10^−4 (TAT226-His),Molecule,IC50 (OVCAR3 cells),IC50 (HCT116#9-4 cells),fold less sensitive than OVCAR3 cells [1],binding to OVCAR3 cells by FACS [2]
0.22,,"YWO.49.H2: affinity matured anti-TAT226 antibody derived from YWO.49, reformatted as full-length IgG (antibody, V domains shown) VH: EVQLVESGGGLVQPGGSLRLSCAASGFTITNYGIHWVRQAPGKGLEWVGRIYPDSGATYYADSVKGRFTISADTSKNTAYLQMNSLRAEDTAVYYCARKLWVSLAPMDYWGQGTLVTVSS VL: DIQMTQSPSSLSASVGDRVTITCRASQDVSTAVAWYQQKPGKAPKLLIYSASFLYSGVPSRFSGSGSGTDFTLTISSLQPEDFATYYCQQSYGTPFIFGQGTKVEIKR",,,,
1.86,0.09,"YWO.49.H6: affinity matured anti-TAT226 antibody derived from YWO.49, reformatted as full-length IgG (antibody, V domains shown) VH: EVQLVESGGGLVQPGGSLRLSCAASGFTITNYGIHWVRQAPGKGLEWVGRIYPDSGATYYADSVKGRFTISADTSKNTAYLQMNSLRAEDTAVYYCARKLWISIAGMDYWGQGTLVTVSS VL: DIQMTQSPSSLSASVGDRVTITCRASQDVSTAVAWYQQKPGKAPKLLIYSASFLYSGVPSRFSGSGSGTDFTLTISSLQPEDFATYYCQHSYATPFTFGQGTKVEIKR",,,,
